Usually Kd stands for the free concentration of one partner at which half of the binding sites on the other are occupied at equilibrium, for simple one-to-one binding. Low readings indicate a tighter complex, high ones a looser complex.

Holding throughout (assay): fluorescence polarisation
(Polarisation of emitted light reports the rotation of a fluorescent probe.)

The target of test [1] is T1, Paramecium calmodulin N-domain fragment (CaM_(1-80)) (Paramecium, UniProt P07463 2-81).
Test [2] deals with T2, Paramecium calmodulin C-domain fragment (CaM_(76-148)) (Paramecium, UniProt P07463 77-149).
The target in test [3] is T3, Paramecium calmodulin, full-length (CaM_(1-148)) (Paramecium, UniProt P07463 1-149).
Test [4] deals with T1, Paramecium calmodulin N-domain fragment …. The source holds these as a separate data set.
Test [5] concerns the target T2, Paramecium calmodulin C-domain fragment …. The source holds these as a separate data set.
For test [6], the target named is T3, Paramecium calmodulin, full-length …. This is another data set of the same source.

Like-named read-outs stand apart in the source and are kept apart here. No end group written: not given here. *: point of attachment. FITC = O=C1OC2(c3ccc(O)cc3Oc3cc(O)ccc32)c2ccc(NC(=S)*)cc21 Bounds are passed on as bounds.

On to {FITC}-ARKEIIRNKIRAIGKMARVFSVLR, for which the Kd in test [1] is 600 µM; in test [2], 44.1 µM; in test [3], 25 µM; in test [4], 7.06 µM; in test [5] it was 0.96 µM; in test [6], ≤ 0.001 µM.
